Test: soluble on expression in E. coli; label from the status in PepcDB or PDB records

Sequence	soluble on expression in E. coli
ALGAPDGVTQGASLSRSIQPLLDAHPGKTGLHVLEKGEESLLARAWLADHATETIDVQYFIWSTDNIGILASEALLRAAERGVRVRVLVDDLLIDAPPESLLALARHPRIDIRIYNPTMTVGTSKVKRLGNVVTGFRSVNQRMHDKTALFDGVVGITGGRNMADEYYDYDQEYTFRDRDILMLGPAVAEAEASFARFWESPLAVPVEKLLKKGMKKMT	not soluble
MGSDKIHHHHHHMRERAAVPPRAVQHSDDVAMVLRMDQPDFIQITDDAVSRDDCAAIVQRMRDSQQLQPGRIGSGVFPDLKHSRDLRISGLADWAAVENRLQQAVFEGLLRYLRQYPQALISPLMLQVTTADGTPHRLVAEDIAQMSDAALSDLARTCLRPGAINLQWYLADQGGYPYWHCELYPRDAGAETLHRHLLWTLYLNEEFEQGETEFLFQQRKARPRTGSLLIAPTAFTHTHRGNRPVGGDKFIATSWILFQSAQALYGGE	not soluble
GDQPVINFGIISTESSQNLKSIWEPFLKDMSQQTGYQVKAFFAPDYAGIIQGMRFDKVDIAWYGNKAAMEAVDRAHGEIFAQTVAASGAPGYWSLLIANKDSKIDSLEDMLANAKSLTFGNGDPNSTSGYLVPGYYVFAKNNVDPVKAFKRTLNSSHEVNALAVANKQVDVATFNTEGMERLELTQPEKARQLKVIWKSPLIPGDPLVWRNNLSDEQKNKLRDFFFKYGANAEQKKVLADLQWSKFQASDDDQLLPIRQLELFKQRTDVANNANLGAEEKAAKLKALDEELAKLEKRMAEREQKTAANAG	soluble
MSLWLPSEATVYLPPVPVSKVVSTDEYVARTNIYYHAGTSRLLAVGHPYFPIKKPNNNKILVPKVSGLQYRVFRIHLPDPNKFGFPDTSFYNPDTQRLVWACVGVEVGRGQPLGVGISGHPLLNKLDDTENASAYAANAGVDNRECISMDYKQTQLCLIGCKPPIGEHWGKGSPCTQVAVQPGDCPPLELINTVIQDGDMVDTGFGAMDFTTLQANKSEVPLDICTSICKYPDYIKMVSEPYGDSLFFYLRREQMFVRHLFNRAGTVGENVPDDLYIKGSGSTANLASSNYFPTPSGSMVTSDAQIFNKPYWLQRAQGHNNGICWGNQLFVTVVDTTRSTNMSLCAAISTSETTYKNTNFKEYLRHGEEYDLQFIFQLCKITLTADVMTYIHSMNSTILEDWNFGLQPPPGGTLEDTYRFVTSQAIACQKHTPPAPKEDPLKKYTFWEVNLKEKFSADLDQFPLGRKFLLQLGLKAKPKFTLGKRKATPTTSSTSTTAKRKKRKL	soluble
QRNGFCRLPADEGICKALIPRFYFNTETGKCTMFSYGGCGGNENNFETIEECQKACGAPERVNDFESADFKTGCEPAADSGSCAGQLERWFYNVQSGECETFVYGGCGGNDNNYESEEECELVCKNM	soluble
GSHMSQVEKDNTQALIPTMNMARQLSEASAWELFAAQNLTSADNEKMWQAQGRMLTAQSLKINALLQALREQGFDTTAIEQQEQEISRSLRQQGELVGQRLQLRQQQQQLSQQIVAAADEIARLAQGQANNATTSAGATQAGIYDLIEQDQRQAAESALDRLIDIDLEYVNQMNELRLSALRVQQMVMNLGLEQIQKNAPTLEKQLNNAVKILQRRQIRIEDPGVRAQVATTLTTVSQYSDLLALYQQDSEISNHLQTLAQNNIAQFAQFSSEVSQLVDTIELRNQHGLA	soluble
MGSDKIHHHHHHMKEAGILFEELVSIMEKLRSPEGCEWDRKQTHESLKPYLIEECYELIEAIDEKNDDMMKEELGDVLLQVVFHAQIARERGAFTIEDVIRTLNEKLIRRHPHVFGDSPGYSYKQWEDIKAQEKGKKKSSRIGEINPLVPALSMARRIQENASQVGFDWKDPEGVYEKIEEELKELKEAKDPRELEEEFGDLLFSIVNLSRFLNVDPESALRKATRKFVERFKKMEELIEKDGLVLEELPIEKLDEYWEKAKGGDET	not soluble
MSLSDNIYSVSQLNSAARQMLEGNFCQIWLTGEISNFTQPVSGHWYLTLKDENAQVRCAMFRMKNLRVAFRPQNGMQVLVRANVSLYEPRGDYQLIIDSMHPAGEGLLQQQFEALKMKLAAEGLFAQNLKKTLPHFSKAVGIITSSTGAALQDILHILARRDPSLKVVIYPTAVQGKEATAEIVQMIELANARQEVDVLIVGRGGGSLEDLWCFNEEEVARAIFRSTLPIISAVGHETDVTIADFVADLRAPTPSAAAELVSRNQDELLQQLRHQQQRLDMAFDRLFTRKSQRLKQLALRLQNQHPQNQLRAQQAKNEQLTHRLQLAILRQFENTQQKFTALSVRLKQNPLPYRIQRYQQGLEQLKVRLNFCVNRQVTERQNKLATLCGKLDGLSPLKVLARGYSIAENPQGKAIVSVKDVNQGDFITTQVADGKIVSKVLEGHHHHHH	not soluble
MTKPRYNDVLFDDDDSVPSESVTRKSQRRKATSPGESRESSKDRLLILPSMGESYTEYVDSYLNLELLERGERETPIFLESLTRQLTQKIYELIKTKSLTADTLQQISDKYDGVVAENKLLFLQRQYYVDDEGNVRDGRNNDKIYCEPKHVYDMVMATHLMNKHLRGKTLHSFLFSHFANISHAIIDWVQQFCSKCNKKGKIKPLKEYKR	not soluble
MARFIARTKLNIDDIKEVDEYKALIPENNQYEELKKAIKEQGFLFPVIVNQNRELIDGYTRLRIARELGLTEIPAEVYETGGREEELDIIASLNLKRRHLTKDELVLLIDKIHEMKKRLKKDNIEEQNSGTGARISAIDKENISKNSVTEESREIREELKKLVPDVQINEDTIRKYLQIKKEVPWLVQYIGDEKKNKIGIRKAYEIYTLLSKKNLLDLDKRIPKTELTKLITDKEGRKILERDDLLQLILDHKMAVSQAINKLKTEEKIKQSKKKSRVKTEDEYAETDEEEEDETEEGQRELDENEEYPLLEEWQKAKEEEKQEAEQQLTPQLNVSPNSNTTQVTLEFSNVLKELSNKGFTKLDFNTDVVIAKINDKYYAILLEALKSLERGSKQYKELAEFLVSNNLAVYDPEEDNYIISWRSLNCS	soluble
MAYWRKWRTSMNLEALPKYYSPKSPKLSDAAPATGSGGLTITDVMAAQGMVQSKAPLGFALFLAKAGVQDPQFAIEGLLNYAMALDNPTLNKLSEEIRLQIIPYLVSFAFADYSRSAASKARCEPCAGTGFHNVLREVVKYSRSGESVIKEEWVKELCQHCHGKGEVSTACRGCKGKGIVLDEKRTRLHGAPVYKICGRCNGNRFSRLPTTLARCHVQKLVPDLTDYQWYKGYADVIDKLVTKCWQEEAYAEVQLRKVTR	not soluble
MGSDKIHHHHHHMNSELEINLRKLGFSVYEAKVYLTLLNLCNSTMKELSENAEIPYQKVYEVVKSLEDKGLVRVIEGRPKKVKLIDPSISLKVYRDKIVSELDYAIGNVISYWSEKGKGEADRSLHIKGKTIVMRMIRELVDKSNKIKVVWDILPEWLIKILKKYKGNLTVITSSNNLSLNAEVKYVKNIKSKFIIFDDSVLVTFNDQDEIVVDSCRGCVLQAEEHFDLLTYKSE	not soluble
MGSSHHHHHHSSGLVPRGSHMSRVTVLQSQLPAYNRLKTPYESELIATVKKLTTPGKGLLAADESIGSCTKRFQPIGLSNTEEHRRQYRALMLEAEGFEQYISGVILHDETVGQKASNGQTFPEYLTARGVVPGIKTDMGLCPLLEGAEGEQMTEGLDGYVKRASAYYKKGCRFCKWRNVYKIQNGTVSESAVRFNAETLARYAILSQMSGLVPIVEPEVMIDGKHDIDTCQRVSEHVWREVVAALQRHGVIWEGCLLKPNMVVPGAESGKTAAPEQVAHYTVMTLARTMPAMLPGVMFLSGGLSEVQASEYLNAINNSPLPRPYFLSFSYARALQSSALKAWGGKESGLAAGRRAFLHRARMNSMAQLGKYKRSDDDASSSSLYVKGNTY	soluble
MSGFYNRGKMKFIHAADIHLGNPISGIDRKINLPEEVKKQIALATFTAFSNVIKLAVDRHVDFVLFPGDLFDSSQQSAYLYNFLNQQFQNLKEAGIEAFISFGNHDFQSDVENDFIWPENVHAFPKSKAKTFFHDSWDGKRVAITGTSFVVRNPRESLVPLYPSRDQSATYQIGMYHGSQGNSSANNYAPFSVGDLQALNYDYWALGHIHVRQVLSKNPAIVYSGDPQGLDLTETGEKGVYFVSDENDQGGLTAEFVPCSSFVFDSFELSINDQSAISNISDLIVQELLSFNHKKMSLNAIRVNLSASLPEKILDQLTDTSFLDLVNSKTIREKQFLIKMDLNVDQKKDNFNQLEERYWQAAKNDVFDEQSFNQALLRTFNSNQQFVIRHFTDPNVQAKLMSKAEQIISERIS	not soluble

Reference: the DeepSol protein solubility set
